B1: VapC toxin from Leptospira interrogans serovar Copenhageni (LIC12660), 6xHis-tagged, refolded by hig (enzyme)
chain: MYLLDTNICIFLIKKKNATLLENLKKKLNKDLFVSSLTVAELEFGIQKSEFKEKNKVALIEFLTIFNILSFSDKDAESYGIIRADLERKGNVIGSIDMLLAAQAIANNYIFVTNNTKEFKRIKALKIENWTQ
notes: also called pressurized VapC
B2: VapC toxin from Leptospira interrogans serovar Copenhageni (LIC12660), non-tagged, co-expressed with VapB (enzyme)
chain: B1 chain
notes: Translated from the bicistronic mRNA under a single promoter; also called non-tagged VapC

Target: the molecule itself
Experiment: non-reducing SDS-PAGE

Protein	stoichiometry N
B1	2
B2	2

— publication PMC4105405, “VapC from the Leptospiral VapBC Toxin-Antitoxin Module Displays Ribonuclease Activity on the Initiator tRNA” (PLoS ONE, 2014)
